Experiments:
Settings in all cases: protein: recombinant; tags: His6-MBP removed by TEV; glycine linker remnant; label: 5'-32P (EMSA, probing)
DM15 GQ908-909AA = DM15 GQ908-909AA (human, UniProt Q6PKG0 873-1023, G985A;Q986A); assay: EMSA; up to 150 uM; two-state shift like WT, more protein needed for maximum shift; EMSA: 20 mM Tris-HCl pH 8, 150 mM NaCl, 10% glycerol, 1 mM DTT, 0.5 ug tRNA, 1 ug BSA, <2 nM RNA, 30 min on ice, native 0.5x TBE gel at 4 C
DM15 Y883A = DM15 Y883A (human, UniProt Q6PKG0 873-1023, Y960A); assay: EMSA; up to 30 uM protein; EMSA: 20 mM Tris-HCl pH 8, 150 mM NaCl, 10% glycerol, 1 mM DTT, 0.5 ug tRNA, 1 ug BSA, <2 nM RNA, 30 min on ice, native 0.5x TBE gel at 4 C
DM15 R840E = DM15 R840E (human, UniProt Q6PKG0 873-1023, R917E); assay: as above

**Q.** Does CCUCUUUUCCGUGGCGCCUC (ssRNA) [RPS6-20mer] bind (DM15 GQ908-909AA)?
**A.** Result: binds

**Q.** Does CCUCUUUUCCGUGGCGCCUC (ssRNA) [RPS6-20mer] bind (DM15 Y883A)?
**A.** Result: no binding

**Q.** Does CCUCUUUUCCGUGGCGCCUC (ssRNA) [RPS6-20mer] bind (DM15 R840E)?
**A.** Result: no binding
